Patent publication US12422438B2, “Means and methods for single molecule peptide sequencing” (VIB VZW, priority 2017, dated 2025)

Key:
[1] = L-leucine-p-nitroanilide activity check after labeling with maleimide-DyLight650; type: biochemical; details: N-terminal cysteine labeled with DyLight650
Excerpt: FIG. 13. Site-specific fluorescent labeling of aminopeptidase T. A. SDS-PAGE analysis of aminopeptidase T after labeling the N-terminal cysteine with an equimolar and a 1×, 10×, 100× and 1000× molar excess of maleimide-DyLight650. Aminopeptidase T was visualized with fluorescence (DyLight650 label) and coomassie (total protein). B. Aminopeptidase T activity check with L-leucine-p-nitroanilide after labeling with maleimide-DyLight650.
Recombinant Taq aminopeptidase containing an extra N-terminal cysteine, was incubated overnight with the fluorescent maleimide-DyLight650 probe in the presence of the reducing agent TCEP (10 mM). Maleimide-DyLight650 was added in equimolar concentration, and in 10×, 100× and 1000× excess molar concentration. After separating the aminopeptidase with SDS-PAGE, it was visualized using a Coomassie stain, as well as with fluorescence to evaluate protein labeling with DyLight650.

[2] = Peptidase assay with L-leucine-p-nitroaniline of purified enzyme; type: biochemical; details: 70° C., PBS buffer
Protocol: A peptidase assay with L-leucine-p-nitroaniline (140 μl PBS buffer, 30 μl 24 mM L-leucine-p-nitroaniline in MeOH and 10 μl purified Tag-APT) confirmed the presence of the active (amino) peptidase, with thermophilic properties (activity at Taq optimum of 70° C.) (FIG. 8).

[3] = biological target: T1, T. aquaticus aminopeptidase T (Thermus aquaticus, UniProt P23341); test: Aminopeptidase assay with different amino acid p-nitroanilide substrates at 40° C. and 80° C.; type: biochemical; details: FIG. 11
T1 construct: 6xHis (C); made in house; host or cells: E. coli BL21(DE3), pET24b(+)
T1 sequence (P23341 with tags, fused parts or gaps): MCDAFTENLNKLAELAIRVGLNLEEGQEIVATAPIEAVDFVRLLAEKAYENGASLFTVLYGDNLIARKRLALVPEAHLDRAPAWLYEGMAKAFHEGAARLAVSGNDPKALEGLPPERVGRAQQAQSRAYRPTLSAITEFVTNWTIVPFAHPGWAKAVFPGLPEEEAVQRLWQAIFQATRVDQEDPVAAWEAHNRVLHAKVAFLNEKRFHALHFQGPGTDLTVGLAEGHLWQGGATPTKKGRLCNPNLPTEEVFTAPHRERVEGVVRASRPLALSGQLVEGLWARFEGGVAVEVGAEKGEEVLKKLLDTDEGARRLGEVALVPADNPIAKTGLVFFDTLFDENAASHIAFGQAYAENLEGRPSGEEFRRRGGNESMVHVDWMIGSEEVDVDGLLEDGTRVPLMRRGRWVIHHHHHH
Protocol: FIG. 11. Aminopeptidase assay with different amino acid p-nitroanilide substrates. Enzyme and substrate (1.5 mM) were incubated for 2 h at 40° C. or 80° C. in PBS, after which the released p-nitroanilide was quantified by measuring the absorbance at 405 nm.
As described herein and in line with the invention described in current application, the activity differs between different amino acids. At 80° C., the panel of amino acid substrates can be roughly divided in fast-cleaved (L, M, Y, R, F) and slow-cleaved (D, P) substrates. However, at 40° C. it seems like the panel is divided in fast-cleaved (Y, R) and slow-cleaved (D, P), and substrates that lie in between (L, M, F). […] Finally, TagAPT is not only active in the p-nitroanilide assay. […] The N-terminal amino acid from peptides with proline at the second position is not easily cleaved since peptide bonds adjacent to the amino acid proline are resistant to cleavage by most peptidases (Iyver et al. 2015 FEBS Open Bio. 2015 Apr. 2; 5:292-302). In contrast to what Is stated in Minagawa et al (1988 Agricultural and Biological Chemistry 52:1755-1763) we show here that T. aquaticus aminopeptidase T can cleave N-terminal amino acids even when proline is at the second position. This surprising finding greatly enhances the generic use of Tag-APT in the method and uses disclosed in current application and in single molecule peptide sequencing in general.

[4] = Circular dichroism analysis of aminopeptidase T secondary structure; type: physicochemical; details: 0% methanol versus 50% methanol, 10 mM K2HPO4
Protocol: (§1) FIG. 12. Organic solvent tolerance of aminopeptidase T from T. aquaticus. A. The activity of aminopeptidase T was measured with L-leucine-p-nitroanilide substrate. Enzyme and substrate were incubated for 3 h at 40° C. in 50 mM TrisHCl (pH 8) containing different concentrations of the organic solvents acetonitrile (ACN), methanol (MeOH) and ethanol (EtOH). B. Circular dichroism analysis of aminopeptidase T secondary structure in 0% versus 50% MeOH (in 10 mM dipotassium phosphate buffer (K2HPO4)). C. Enzyme activity in varying concentrations of MeOH in buffer (50 mM TrisHCl, pH 8) versus deionized water (MilliQ).
(§2) It is well-known in the art that this can be achieved by solvents (such as methanol) or high temperatures. When these harsh conditions are needed, the aminopeptidases used should tolerate solvents and/or high temperatures. […] At higher organic solvent concentrations, activity can still be detected, albeit lower. […] Furthermore, the enzyme appears to be fully active in deionized (MS grade) water, which might be advantageous when the enzyme will be used with ultra-sensitive chip technology (e.g. electrical biosensor such as field effect transistors) (FIG. 12C).

[5] = Organic solvent tolerance of aminopeptidase T, activity with L-leucine-p-nitroanilide substrate; type: biochemical
Protocol: as §1, §2

B1: aminopeptidase T from T. aquaticus: aminopeptidase T from Thermus aquaticus, Cys added at the N-terminus and 6×His at the C-terminus, SEQ ID No. 8 (protein)
chain: MCDAFTENLNKLAELAIRVGLNLEEGQEIVATAPIEAVDFVRLLAEKAYENGASLFTVLYGDNLIARKRLALVPEAHLDRAPAWLYEGMAKAFHEGAARLAVSGNDPKALEGLPPERVGRAQQAQSRAYRPTLSAITEFVTNWTIVPFAHPGWAKAVFPGLPEEEAVQRLWQAIFQATRVDQEDPVAAWEAHNRVLHAKVAFLNEKRFHALHFQGPGTDLTVGLAEGHLWQGGATPTKKGRLCNPNLPTEEVFTAPHRERVEGVVRASRPLALSGQLVEGLWARFEGGVAVEVGAEKGEEVLKKLLDTDEGARRLGEVALVPADNPIAKTGLVFFDTLFDENAASHIAFGQAYAENLEGRPSGEEFRRRGGNESMVHVDWMIGSEEVDVDGLLEDGTRVPLMRRGRWVIHHHHHH
modifications: labeled TaqAPT
function after labeling with maleimide-DyLight650 [1]: does not jeopardize its function | peptidase activity with L-leucine-p-nitroaniline [2]: active | cleavage of dipeptides with a proline at the second position [3]: cleaves dipeptides even with a proline at the second position | structural differences by circular dichroism (CD) [4]: no structural differences were observed | acetonitrile concentration up until which enzyme remains completely active ([5]; acetonitrile, 3 h at 40° C., 50 mM TrisHCl (pH 8)): ≤ 33% | enzyme activity in deionized (MS grade) water ([5]; deionized water (MilliQ) versus buffer): fully active | ethanol concentration up until which enzyme remains completely active ([5]; ethanol, 3 h at 40° C., 50 mM TrisHCl (pH 8)): ≤ 33% | methanol concentration up until which enzyme remains completely active ([5]; methanol, 3 h at 40° C., 50 mM TrisHCl (pH 8)): ≤ 50%
